Experimental findings from publication PMC7690628 (Pharmaceuticals, 2020) are described below.

In data set [1] the target is CYP3A4 (Homo sapiens, UniProt P08684). In words: biochemical.
Substrate in data set [2]: O=C(CCc1ccc(O)cc1)c1c(O)cc(O)cc1O
In words: purified protein. To be noted: heme.

Sequence of CYP3A4 (P08684 2-503): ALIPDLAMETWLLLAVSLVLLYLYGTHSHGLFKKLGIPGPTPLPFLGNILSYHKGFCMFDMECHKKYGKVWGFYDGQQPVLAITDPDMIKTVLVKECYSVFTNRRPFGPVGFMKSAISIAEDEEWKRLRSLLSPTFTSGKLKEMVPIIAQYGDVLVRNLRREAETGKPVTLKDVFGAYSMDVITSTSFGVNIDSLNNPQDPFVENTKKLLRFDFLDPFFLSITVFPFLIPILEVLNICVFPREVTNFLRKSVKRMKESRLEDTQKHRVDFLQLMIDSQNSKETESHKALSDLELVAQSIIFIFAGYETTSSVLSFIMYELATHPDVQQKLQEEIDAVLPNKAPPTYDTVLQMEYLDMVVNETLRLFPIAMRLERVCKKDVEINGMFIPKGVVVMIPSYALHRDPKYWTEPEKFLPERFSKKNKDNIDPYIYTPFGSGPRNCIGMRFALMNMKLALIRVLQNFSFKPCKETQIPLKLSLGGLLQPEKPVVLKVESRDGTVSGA
Sequence of CYP3A4 (P00388 2-678 partner): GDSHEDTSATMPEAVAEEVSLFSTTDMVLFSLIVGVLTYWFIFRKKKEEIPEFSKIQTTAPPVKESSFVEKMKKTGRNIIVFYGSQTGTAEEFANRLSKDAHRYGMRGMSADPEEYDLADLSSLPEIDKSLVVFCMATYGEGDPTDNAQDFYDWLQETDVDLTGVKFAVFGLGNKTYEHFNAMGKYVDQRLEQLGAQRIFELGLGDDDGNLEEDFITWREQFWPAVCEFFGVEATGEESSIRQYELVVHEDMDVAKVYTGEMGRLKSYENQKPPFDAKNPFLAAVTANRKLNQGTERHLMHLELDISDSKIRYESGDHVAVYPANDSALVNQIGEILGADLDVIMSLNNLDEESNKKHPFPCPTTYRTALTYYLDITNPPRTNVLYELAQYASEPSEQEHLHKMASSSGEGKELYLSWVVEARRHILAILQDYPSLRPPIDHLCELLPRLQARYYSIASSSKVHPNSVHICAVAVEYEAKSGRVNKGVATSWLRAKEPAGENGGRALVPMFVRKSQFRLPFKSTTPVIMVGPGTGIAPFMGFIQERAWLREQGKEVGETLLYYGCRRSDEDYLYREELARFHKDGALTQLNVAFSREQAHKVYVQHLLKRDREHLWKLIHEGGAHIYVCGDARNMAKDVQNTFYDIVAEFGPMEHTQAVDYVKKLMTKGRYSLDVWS

In data set [1], `O=C(CCc1ccc(O)cc1)c1c(O)cc(O)cc1O` [phloretin, 3-(4-hydroxyphenyl)-1-(2,4,6-trihydroxyphenyl)propan-1-one] had an IC50 of 13 µM.

B1: CYP2C19 (Homo sapiens) (protein)
chain: MDPFVVLVLCLSCLLLLSIWRQSSGRGKLPPGPTPLPVIGNILQIDIKDVSKSLTNLSKIYGPVFTLYFGLERMVVLHGYEVVKEALIDLGEEFSGRGHFPLAERANRGFGIVFSNGKRWKEIRRFSLMTLRNFGMGKRSIEDRVQEEARCLVEELRKTKASPCDPTFILGCAPCNVICSIIFQKRFDYKDQQFLNLMEKLNENIRIVSTPWIQICNNFPTIIDYFPGTHNKLLKNLAFMESDILEKVKEHQESMDINNPRDFIDCFLIKMEKEKQNQQSEFTIENLVITAADLLGAGTETTSTTLRYALLLLLKHPEVTAKVQEEIERVIGRNRSPCMQDRGHMPYTDAVVHEVQRYIDLIPTSLPHAVTCDVKFRNYLIPKGTTILTSLTSVLHDNKEFPNPEMFDPRHFLDEGGNFKKSNYFMPFSAGKRICVGEGLARMELFLFLTFILQNFNLKSLIDPKDLDTTPVVNGFASVPPFYQLCFIPV
In the case of B1, in data set [2], the Km was found to be 208 ± 50 µM, the kcat was 0.0967 s⁻¹ and the kcat/Km is 467 M⁻¹ s⁻¹.

One may read the IC50 as the midpoint of a concentration-inhibition curve. A lower IC50 goes with higher potency. In general, Km refers to the substrate concentration at which the rate is half of its maximum. One may read the kcat as the maximal rate divided by the concentration of active sites. What is called kcat/Km is the second-order rate constant that governs catalysis at low substrate concentration.
